These results are taken from paper PMC6795518.

Usually Kd stands for a measure of binding affinity in units of concentration. Higher therefore signals a looser complex. One may read the stoichiometry N as the number of molecules, sites or subunits per partner or assembly.

The target of experiment [1] is TcdB2-TccC3 from Photorhabdus luminescens (Pl-TcdB2-TccC3) (Photorhabdus luminescens) (UniProt Q8GF99). In words: BLI. (In general: BLI is a label-free optical method that tracks binding on a fibre tip over time.)
Experiment [2] addresses XptA1 from Xenorhabdus nematophila (Xn-XptA1) (Xenorhabdus nematophila). The experiment is described as follows: cryo-EM structure.

In the case of “TcdA1 from Photorhabdus luminescens (Pl-TcdA1), Q9RN43 1-2516”, in experiment [1], the Kd came out at 0.63 nM. In experiment [1], “TcdA4 from Morganella morganii (Mm-TcdA4) (natural protein)” showed a Kd of 11.3 nM. With “XptA1 from Xenorhabdus nematophila (Xn-XptA1) (natural protein)”, in experiment [1], the dissociation constant (Kd) is 1.99 nM. This substance also registered a stoichiometry N in experiment [2] of 5.
